Results on two molecules are retold here after patent US5863776A, “Method of preparing apoenzyme” (Research Development Foundation, priority 1996, dated 1999).

The target in data set [1] is T1, MAO B (Homo sapiens, UniProt P27338).
T1 construct: expressed in transfected cells; host or cells: COS-7 (African green monkey), riboflavin-containing (Rib+) or riboflavin-depleted (Rib-), transient electroporation
T1 sequence (P27338 1-520): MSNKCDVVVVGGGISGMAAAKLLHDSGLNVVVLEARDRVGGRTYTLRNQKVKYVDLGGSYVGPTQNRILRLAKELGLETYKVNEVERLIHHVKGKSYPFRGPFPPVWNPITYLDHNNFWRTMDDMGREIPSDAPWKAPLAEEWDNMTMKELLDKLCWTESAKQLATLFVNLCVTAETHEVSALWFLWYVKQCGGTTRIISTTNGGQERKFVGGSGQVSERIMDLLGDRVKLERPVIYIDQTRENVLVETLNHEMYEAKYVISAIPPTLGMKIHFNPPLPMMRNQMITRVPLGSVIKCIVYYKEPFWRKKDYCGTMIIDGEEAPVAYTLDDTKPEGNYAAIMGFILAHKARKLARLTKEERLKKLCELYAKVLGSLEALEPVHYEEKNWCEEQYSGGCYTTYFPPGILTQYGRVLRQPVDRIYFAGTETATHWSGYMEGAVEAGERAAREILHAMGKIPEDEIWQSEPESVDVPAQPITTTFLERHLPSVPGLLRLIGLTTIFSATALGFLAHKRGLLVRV
The experiment in a line: MAO B enzymatic activity in COS-7 cells during riboflavin depletion. It is filed as cell-based. The protocol: Mammalian COS-7 cells were grown in Dulbecco's Modified Eagle Medium (DMEM, Gibco) supplemented with 10% fetal bovine serum (FBS, Gibco) at 37° C. with 5% CO2. Since this medium (DMEM+10% FBS) contains riboflavin, COS-7 cells grown in this medium were defined as riboflavin-containing COS-7 cells (Rib^+ COS-7 cells). MAO B holoenzyme was obtained by expressing MAO B cDNA in Rib^+ COS-7 cells. Mammalian COS-7 cells were also grown in riboflavin-free medium (riboflavin-free DMEM+10% dialyzed FBS, Gibco) at 37° C. with 5% CO2, with fresh riboflavin-free medium changed every 48-72 hours. COS-7 cells grown in riboflavin-free medium for longer than 100 days were defined as riboflavin-depleted (Rib^-) COS-7 cells. Apo-MAO B was obtained by expressing MAO B cDNA in Rib^- COS-7 cells. COS-7 cells were grown in riboflavin-free medium for greater than 5 months without any detectable change in morphology.
Wild-type or mutant MAO B cDNAs were transiently transfected into COS-7 cells by electroporation (23) as previously described (18). […]
MAO B activity was assayed radiometrically by a modification of the method of Wurtman and Axelrod (26) as described previously (18). […] The reaction product was extracted with 500 μl of toluene, and an aliquot (200 μl) of the organic phase from each sample was counted in liquid scintillation fluid (Bio-Safe) in a Beckman LB 3801 scintillation counter. […]

Data set [2] concerns the target T1, MAO B. The experiment in a line: Quantitation of expressed MAO B protein by ELISA in transfected COS-7 cells. It is filed as cell-based. On the set-up: MAO B Expressed: unit not given here. On the procedure:
(§1) Total protein concentrations of samples containing MAO B holoenzyme, apoenzyme, or variant MAO Bs were determined by a MicroBCA kit (Pierce). All samples were then adjusted to equal protein concentrations and assayed for MAO B protein by ELISA using a modification of the method of Yeomanson and Billett (25) as described previously (18).
MAO B cDNA was expressed sequentially at different time intervals in these cells during this riboflavin depletion process (FIG. 2). Each data point in FIG. 2 represents an individual expression assay. For each assay, a sample of COS-7 cells grown in riboflavin-free medium were transfected with MAO B cDNA via electroporation. Concurrently, Rib^+ COS-7 cells were transfected with MAO B cDNA to serve as a control. Following incubation for 48 hours, the cells were homogenized and assays were performed to determine protein concentration, MAO B concentration by ELISA using polyclonal antibodies, and MAO B activity using [^14 C] benzylamine.
An equal amount of MAO B cDNA (15 μg) was expressed in both types of […]

The target of data set [3] is T1, MAO B. Nature of the data set: FAD coupling in vitro (flavinylation assay in cell lysate, 30° C.). The following applies: up to 3 hours at 30° C. It is filed as biochemical. On the procedure: (- - - x - - - ). […] The enzymatic activity of each sample was determined at 1 hour time intervals using [^14 C] benzylamine as substrate.
Apo-MAO B was obtained by expressing MAO B cDNA in Rib^- COS-7 cells. The cells were then harvested and homogenized as described above. One half of the lysate was stirred in the presence of 0.25% Triton X-100 at 4° C. for 50 min. to extract apo-MAO B from the outer mitochondrial membrane. The second half of the lysate was not extracted with Triton X-100 to permit MAO B to remain in the membrane. […] Assays were also carried out in the presence of an energy mixture (10 mM ATP, 32 mM PEP and 2.4 μg pyruvate kinase) and 25% glycerol in the reaction vials. Each sample was run in triplicate. After 1, 2 or 3 hours incubation at 30° C., each sample was assayed for MAO B activity as described below.
(§2) MAO B activity was assayed radiometrically by a modification of the method of Wurtman and Axelrod (26) as described previously (18). Briefly, the reaction mixture contained 200 μl of 50 mM sodium phosphate buffer (pH 7.4), 3.6 nmole of 55 mCi/mmol [^14 C] benzylamine hydrochloride (Amersham), 10 nmoles of unlabeled benzylamine and 10 μl of cell lysate. Samples were run in triplicate, and one out of each set was denatured with […] of 6N HCl prior to the addition of substrate to serve as an internal control. All reactions were incubated for 9 minutes at 37° C., and terminated by the addition of 25 μl of 6N HCl. The reaction product was extracted with 500 μl of toluene, and an aliquot (200 μl) of the organic phase from each sample was counted in liquid scintillation fluid (Bio-Safe) in a Beckman LB 3801 scintillation counter.

Data set [4] deals with T1, MAO B. The experiment in a line: FAD coupling in intact cells: MAO B enzymatic activity after electroporation of MAO B cDNA with cofactor into Rib^- COS-7 cells ([^14 C] benzylamine substrate). The data set is classed as cell-based. On the set-up: Percent of Holo-MAO B Activity: concentration or dose not given beside the values. On the procedure:
Wild-type or mutant MAO B cDNAs were transiently transfected into COS-7 cells by electroporation (23) as previously described (18). Briefly, Rib^+ - or Rib^- COS-7 cells were harvested during late log phase growth and resuspended to a concentration of 3.1×10^6 cells/ml in either riboflavin-containing or riboflavin-free medium, respectively. Wild-type or mutant MAO B cDNAs ([…]) were added to 0.8 ml of cell suspension. […] Electroporation was carried out in a Bio-Rad Gene Pulser with a setting of 250 V and 500 μF. Cells were resuspended in 15 ml of riboflavin-containing or riboflavin-free medium and incubated at 37° C. with 5% CO2. Transfected COS-7 cells were harvested at 48 hours and homogenized in a lysis solution containing 20 mM Tris-HCl, 1 mM EDTA, 0.5 mM PMSF, pH 8.0. The homogenate was diluted with an equal volume of the same buffer supplemented with 300 mM NaCl to obtain a 150 mM final NaCl concentration. Triton X-100 (Pierce) was added to the lysate to give a final concentration of 0.25%, and the samples were allowed to stir for 50 min. at 4° C. to extract MAO B from the outer mitochondrial membrane. After Triton extraction, the lysate was centrifuged at 1300×g for 5 min. at 4° C. to remove insoluble cell debris.
as §2
FMN or riboflavin were also capable of restoring approximately 75% of MAO B holoenzyme activity. However, only 40% of MAO B holoenzyme activity was obtained by the addition of 8α-hydroxyriboflavin.
Various cofactors were added with MAO B cDNA into Rib^- COS7 cells

The target in data set [5] is T1, MAO B. Nature of the data set: Subcellular fractionation of transfected Rib^+ and Rib^- COS-7 cells: distribution of MAO B and activity. The data set is classed as cell-based. The following applies: for Fraction activity: Rib^+ COS-7. On the procedure:
COS-7 subcellular fractionation was carried out with a modified method of Clark and Waterman (24). Transfected Rib^+ - or Rib^- COS-7 cells were harvested, washed twice with ice-cold PBS, and pelleted by microcentrifugation at 500×g for 5 minutes. The cells were then homogenized in a Dounce homogenizer. Greater than 95% of the cells were lysed, as determined by trypan blue staining. The homogenate was diluted with an equal volume of 10 mM Tris-HCl, 1 mM EDTA, pH 8.0, to obtain a 0.25M final sucrose concentration and layered over 0.5 volume of 0.5M sucrose pad (0.5M sucrose in 10 mM Tris-HCl, 1 mM EDTA, pH 8.0). The solution was centrifuged at 5,000 rpm for 3 minutes using a swinging bucket rotor (TLS.55, Beckman TL-100) to remove cell debris and nuclei (P1 fraction). The supernatant plus the interface of the 0.5M sucrose pad was again layered over another 0.5M sucrose pad, and centrifuged as above at 17,000 rpm for 20 minutes to isolate mitochondria (P2 fraction). The resulting supernatant was centrifuged at 70,000 rpm (TL100.3, Beckman TL-100) for 30 minutes to sediment microsomes (P3 fraction). The final supernatant was the cytosol (S). After subcellular fractionation, P1, P2 and P3 were resuspended in 20 mM Tris-HCl, 1 mM EDTA, 0.5 mM PMSF, 150 mM NaCl, pH 8.0. All samples were treated with Triton X-100 to extract MAO B, and then protein concentrations, MAO B concentrations and enzymatic activities were determined.
as §1, §2
Transfected Rib^+ or Rib^- COS7 cells (1.2 × 10^7

Setting [6] is: COS-7 cells grown in riboflavin-free medium for 76 days.
The mark [7] stands for this setting: cofactor added with MAO B cDNA into Rib^- COS-7 cells, 48 hours, mean ± SE, three experiments.
Setting [8] is: Mitochondria (P2), listed as holo-MAO B.

On to monoamine oxidase B [MAO B], for which the “MAO B activity, % of MAO B holoenzyme activity in Rib^+ COS-7 cells” value at MAO B [1] (100 days in riboflavin-free medium) is recorded as “less than 5%”. In addition, the “MAO B activity” value on MAO B [1] (after 116 days in riboflavin-free medium) was “nearly undetectable”. In the data set with MAO B [2] (setting [6]), the Expression is recorded as 0.90 μg MAO B/mg prot and the “[MAO B]” value stood at 3.70 µg/mL. Moreover, in the data set with MAO B [2] (Rib^+ COS-7), the Expression is given as 0.86 μg MAO B/mg prot and the “[MAO B]” value is 3.50 µg/mL. Moreover, the “MAO B expression level” value with MAO B [2] (during riboflavin depletion, regardless of time in riboflavin-free medium) worked out at 0.95±0.04 μg/mg protein.

B1: Holo-MAO B: obtained by expressing MAO B cDNA in Rib^+ COS-7 cells, which served as a positive control (protein, UniProt P27338 2-520, looked up)
Amine oxidase …: SNKCDVVVVGGGISGMAAAKLLHDSGLNVVVLEARDRVGGRTYTLRNQKVKYVDLGGSYVGPTQNRILRLAKELGLETYKVNEVERLIHHVKGKSYPFRGPFPPVWNPITYLDHNNFWRTMDDMGREIPSDAPWKAPLAEEWDNMTMKELLDKLCWTESAKQLATLFVNLCVTAETHEVSALWFLWYVKQCGGTTRIISTTNGGQERKFVGGSGQVSERIMDLLGDRVKLERPVIYIDQTRENVLVETLNHEMYEAKYVISAIPPTLGMKIHFNPPLPMMRNQMITRVPLGSVIKCIVYYKEPFWRKKDYCGTMIIDGEEAPVAYTLDDTKPEGNYAAIMGFILAHKARKLARLTKEERLKKLCELYAKVLGSLEALEPVHYEEKNWCEEQYSGGCYTTYFPPGILTQYGRVLRQPVDRIYFAGTETATHWSGYMEGAVEAGERAAREILHAMGKIPEDEIWQSEPESVDVPAQPITTTFLERHLPSVPGLLRLIGLTTIFSATALGFLAHKRGLLVRV
modifications: FAD holoenzyme
notes: obtained by expressing MAO B cDNA in Rib^+ COS-7 cells, which served as a positive control
On to B1, for which the “stability of enzymatic activity in cell lysate” value with MAO B [3] is “remained fully active”. The “Enzymatic Activity” value with MAO B [4] (setting [7]) was 1.13 ± 0.14 μmol benzylamine/minute/mg MAO. Besides, the “Percent of Holo-MAO B Activity” value with MAO B [4] (relative to holo-MAO B expressed in Rib^+ COS-7 cells) came to 100%. In addition, in the data set with MAO B [2] (setting [7]), the “MAO B Expressed” value stood at 1.05 ± 0.25. The “Fraction activity, percentage of total” value in the data set with MAO B [5] (Cell debris (P1)) is given as 4.5%; with MAO B [5] (Cytosol (S)), 3.7%; with MAO B [5] (Microsome (P3)), 8.6%; with MAO B [5] (Mitochondria (P2)), 83.3%; in the data set with MAO B [5] (setting [8]), “Approximately 80%”. Moreover, the “MAO B amount” value in the data set with MAO B [5] (Cell debris (P1)) is 58 ng; in the data set with MAO B [5] (Cytosol (S)) it was 45 ng; in the data set with MAO B [5] (Microsome (P3)) it was 96 ng; in the data set with MAO B [5] (Mitochondria (P2)) it was 760 ng. Also, the “MAO B, percentage of total amount” value in the data set with MAO B [5] (Cell debris (P1)) is 6.1%; with MAO B [5] (Cytosol (S)) it was 4.7%; with MAO B [5] (Microsome (P3)), 10%; with MAO B [5] (Mitochondria (P2)), 79.3%; with MAO B [5] (setting [8]), “Approximately 80%”. The Fraction activity is given as 0.6 10^-4 mmol/minute in the data set with MAO B [5] (Cell debris (P1)), 0.48 10^-4 mmol/minute in the data set with MAO B [5] (Cytosol (S)), 1.11 10^-4 mmol/minute with MAO B [5] (Microsome (P3)) and 10.8 10^-4 mmol/minute with MAO B [5] (Mitochondria (P2)).
